Test results: the supplement of paper PMC9170038

System: MS2 coat protein
Test: apparent KD of MS2 coat protein; designed switch direction (-1 OFF switch, 1 ON switch): -1; higher = weaker reporter binding
Method in brief: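 An oligonucleotide input, 200 uM small-molecule ligand, or no input was present during titration of SNAP-549-labelled MS2 coat protein, which was doubled from 0.7 or 1.5 nM to 3 µM. Designed RNA switches had been transcribed on Illumina chips by stalled E. coli RNA polymerase. Apparent KD per design is the median over clusters of curves fitted to normalised cluster fluorescence.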

[1] = input ligand: microRNA oligo, concentration not stated
[2] = Eterna round: R95, input ligand: FMN 200 uM
[3] = Eterna round: R95, input ligand: microRNA oligo, concentration not stated
[4] = Eterna round: R95, input ligand: none

| Sequence | apparent KD of MS2 coat protein (input ligand: FMN 200 uM) | apparent KD of MS2 coat protein [1] | apparent KD of MS2 coat protein (input ligand: none) | apparent KD of MS2 coat protein [2] | apparent KD of MS2 coat protein [3] | apparent KD of MS2 coat protein [4] |
| --- | --- | --- | --- | --- | --- | --- |
| ACGAUGAUCGAAAAGUGUAAAUCGACAUGAGGAUCACCCAUGUAGGAUAUGGCUACGAAAAGUAGUCAGAAGGGCAUGUCAUCA [3 Av 11 mod - 1] (Eterna round: R96, puzzle: Exclusion NG 3) | 36.9 nM | 25.7 nM | 31.1 nM |  |  |  |
| ACGCAACAUGAGGAUCACCCAUGUCAGGAUAUCCGGCGAAAACCCAAGAAGGGAAACCGGAGAAGGGACAAAGG [ChP 04-04-2015 #1] (puzzle: Exclusion 1) |  |  |  | 134 nM | 181 nM | 189 nM |
| ACGCAUUGCCUUUGGUAGUGCGUAACAUGAGGAUCACCCAUGUAGGAUAUGGUAGGCUUUGCUUACCAGAAGGACAUUAUAAAC [Mat - Exclusion NG 3 - Mod of JL - D9] (Eterna round: R96, puzzle: Exclusion NG 3) |  | 21.9 nM |  |  |  |  |
| ACGCAUUGCCUUUGGUAGUGCGUAACAUGAGGAUCACCCAUGUAGGAUAUGGUAGGCUUUGCUUACCAGAAGGACAUUGUUGAU [Omei mod of JL ENG3 1.03] (Eterna round: R96, puzzle: Exclusion NG 3) | 220 nM | 107 nM | 130 nM |  |  |  |
| ACGCAUUGCCUUUGGUAGUGCGUUACAUGAGGAUCACCCAUGUAGGAUAUGGUAGGCAAAGCUUACCAGAAGGACAUGAUAAUU [Mat - Exclusion NG 3 - Mod of JL - D5] (Eterna round: R96, puzzle: Exclusion NG 3) |  | 41.8 nM |  |  |  |  |
| ACGCGUGGCUAGGAUAUCGAGGAAUCUAGCCAGCGAGAAGGAGCCACAUGAGGAUCACCCAUGUGGUGAUCCUC [jl-ex6-4.65 ViennaUCT mod] (Eterna round: R97, puzzle: Exclusion 6) | 6.76 nM |  | 3.8 nM |  |  |  |
| ACGGCGGCUCUAGGAUAUGACGACAUGAGGAUCACCCAUGUAGCCUUAGCCUUCACGAAAAUCGAUCAGAAGGAGAGCUCCAGG [Eternabot solution 19] (Eterna round: R96, puzzle: Exclusion NG 2) | 13.5 nM | 10.9 nM | 17.6 nM |  |  |  |
| ACGUGACAUGAGGAUCACCCAUGUGAGGAUAUCUGGAUAAUUUUUAUUUUAGAUAUCCAGAGAAGGCACAUGUU [Ex1-3: 1Z] (puzzle: Exclusion 1) |  |  |  |  | 188 nM |  |
| ACGUGAUAUCUGUCGGUGGACAUGAGGAUCACCCAUGUAAGCUUUUUGCUCAUCUUAUAACCCGGUGACAGACCUUC [Zaisbela] (puzzle: Sensor v3, turn-off variant 1) |  |  |  | 26.8 nM | 413 nM | 29.5 nM |
| ACGUUUUUUGAGGAUAUGCGACGUUUUUUCGUCGUAGAAGGCGAUACAUGAGGAUCACCCAUGUUUAUGGGCAU [LRO-Ex6-18] (puzzle: Exclusion 6) |  |  |  |  | 129 nM |  |
| ACUAGAUGAGGAUAUGCAUGUUUUCGUGUUCUUCUAGAUUAACAUGAGGAUCACCCAUGUAGAAGGCGUCAUAU [Exclusion 2 - 29] (puzzle: Exclusion 2) |  |  |  |  | 45 nM |  |
| ACUAUACGAGGAUAUACUGACGGGCCUCAGGCAUCCAUCAGACAUGAGGAUCACCCAUGUAGAAGGCGUAUACU [JR_Exc002_Sub408] (Eterna round: R96, puzzle: Exclusion 2) | 459 nM | 44.4 nM | 51.4 nM |  |  |  |
| ACUCAACAGUAGGAUAUCAUCAAACUAUUGUGAUGAGAAGGACUGACAUGAGGAUCACCCAUGUUAACGUGAUG [Mod of Brourd 2 - Jieux - Exclusion 6] (Eterna round: R97, puzzle: Exclusion 6) | 32.1 nM |  | 21.5 nM |  |  |  |
| ACUCAACAUGAGGAUCACCCAUGUCAGGAUAUCUCUAUUUUGCGCGGGAGCAGAAUAGAGAGAAGGGACAACCU [Eternabot (Original) Solution 3] (Eterna round: R97, puzzle: Exclusion 1) | 91.2 nM |  | 42.8 nM |  |  |  |
| ACUCGACAUGAGGAUCACCCAUGUGAGGAUAUGGCCUGUAUGGCGUGAGCUGGAUCAAUCAGAAGGCGCGUGGG [salish99_ex1_r4_052] (Eterna round: R97, puzzle: Exclusion 1) | 80.4 nM |  | 56 nM |  |  |  |
| ACUGGUCGAGGAUAUACAAUCGUGCUUCGGCACGUAAGGUCACAUGAGGAUCACCCAUGUAGAAGGCGACCAGU [E2/2-A3] (Eterna round: R97, puzzle: Exclusion 2) | 226 nM |  | 29.5 nM |  |  |  |

| Sequence | apparent KD of MS2 coat protein (input ligand: FMN 200 uM) | apparent KD of MS2 coat protein [1] | apparent KD of MS2 coat protein (input ligand: none) | apparent KD of MS2 coat protein [2] | apparent KD of MS2 coat protein [3] | apparent KD of MS2 coat protein [4] |
| --- | --- | --- | --- | --- | --- | --- |
| ACUGGUCGAGGAUAUAUAUGACGUGCUUCGGCACGAAGAUCACAUGAGGAUCACCCAUGUAGAAGGCGACCAGU [E2/8-A2] (Eterna round: R97, puzzle: Exclusion 2) | 731 nM |  | 130 nM |  |  |  |
| ACUUAUUGAGGAUAUACAUUAAUUUACAUGAGGAUCACCCAUGUUCUUCAAUGUAUAUAUGUAGAAGGCAGAAGAA [JL-ex5-4.30 Malcolm mod] (Eterna round: R97, puzzle: Exclusion 5) | 29.3 nM |  | 14 nM |  |  |  |
| ACUUCACAUGAGGAUCACCCAUGUGAGGAUAUCGUCGAGGAUGUAAUGCCAUCCGUGACGAGAAGGCGCAUGGU [Exclusion 1 (Mod 2.1 solution 40 by Eternabot)] (Eterna round: R97, puzzle: Exclusion 1) | 147 nM |  | 31.1 nM |  |  |  |
| ACUUGUCAUGAGGAUAUGCGACGCAACGGUGGAGCAGAAGGCGUGACAUGAGGAUCACCCAUGUCAGUUCGCGA [eternacac ex6r4 sub32] (Eterna round: R97, puzzle: Exclusion 6) | 43.4 nM |  | 16.1 nM |  |  |  |
| AGAAAUGCCCAUGGCCACAAGCUUUUUGCUUGUCUUACUACAUGAGGAUCACCCAUGUAACAUGGGCUCCUGACAAA [Soarriat] (puzzle: Sensor v3, turn-off variant 2) |  |  |  | 12.9 nM | 9.12 nM | 10.9 nM |
| AGAAGACAUGAGGAUCACCCAUGUAAGGAUAUCGAAGGUAAGAGAGGAAAGAAGGGAACGAGAAGGUACAGGUG [JR_Exclu1_Sub096] (puzzle: Exclusion 1) |  |  |  | 91.6 nM | 107 nM | 156 nM |
| AGAAGACAUGAGGAUCACCCAUGUAAGGAUAUCGAAGGUAUGAGAGGAAAGAGGUUAACGAGAAGGUACAGGUG [JR_Exclu1_Sub098] (puzzle: Exclusion 1) |  |  |  | 85.9 nM | 74.1 nM | 130 nM |
| AGAAGACAUGAGGAUCACCCAUGUAAGGAUAUCGGAGGUAAGGGAGGAAGGAGAUAGGCGAGAAGGUACAGGUG [JR_Exclu1_Sub093] (puzzle: Exclusion 1) |  |  |  | 39 nM | 53.1 nM | 51.7 nM |
| AGACAGUGAGGAUAUGCAGUCGGUGUCACCUGAUGAGAAGAACAUGAGGAUCACCCAUGUAGAAGGCACAGGAA [Tearrice] (puzzle: Exclusion 2) |  |  |  |  | 40.6 nM |  |
| AGAGAAUACUCAGGAUAUCGGAAUAGAAAGAGACGAGAAGGGAGACAUGAGGAUCACCCAUGUGAAGUCUUGAGGCUGCAUGGA [Prohibition 26 - Jieux - Exclusion NG 1] (Eterna round: R96, puzzle: Exclusion NG 1) | 197 nM | 122 nM | 165 nM |  |  |  |
| AGAGUGCUGCGAGGAUAUACAUGAGGAUCACCCAUGUGGAUCUGUGAGGCUUUGCCUCACAGGAUGUAGAAGGCGCAGUACUCA [Mat - Exclusion NG 2 - Mod of JL - D48] (Eterna round: R96, puzzle: Exclusion NG 2) | 178 nM | 18.2 nM | 25.4 nM |  |  |  |
| AGAGUGCUGCGAGGAUAUACAUGAGGAUCACCCAUGUGGAUCUGUGAGGGAAAACCUCACAGGAUGUAGAAGGCGCAGUACUCA [Mat - Exclusion NG 2 - Mod of JL - D50] (Eterna round: R96, puzzle: Exclusion NG 2) | 134 nM | 15.8 nM | 37.2 nM |  |  |  |
| AGAGUGUGAGGAUAUAUGGUGAAGAUGAAGAAAGAGAAGGAGUAGAAGGUACAUGAGGAUCACCCAUGUUGAGG [JR_Exclu4_Sub071] (puzzle: Exclusion 4) |  |  |  | 44.8 nM | 47.8 nM | 45.5 nM |
| AGAUCACAUGAGGAUCACCCAUGUCAGGAUAUCUACAUUGAAGCUUCGGCUUCAAUGUAGAGAAGGGAUAAUUA [E1/4-B1] (Eterna round: R97, puzzle: Exclusion 1) | 119 nM |  | 62.2 nM |  |  |  |
| AGAUGGCGAGGAUAUACAUGAGGAUCACCCAUGUGAGAGAAUAAAGUGAGGAAGAAAAGUAGAAGGCGCUGUCA [Mat - Exclusion 3 - Mod of Salish D10] (puzzle: Exclusion 3) |  |  |  |  | 43.3 nM |  |
